The assay addresses HER2 (human, UniProt P04626 23-1255). Put plainly: cell-based or functional assay.

B1: A49-F3′-TriNKET-Trastuzumab (bispecific antibody)
heavy: EVQLVESGGGLVKPGGSLRLSCAASGFTFSSYSMNWVRQAPGKGLEWVSSISSSSSYIYYADSVKGRFTISRDNAKNSLYLQMNSLRAEDTAVYYCARGAPMGAAAGWFDPWGQGTLVTVSSASTKGPSVFPLAPSSKSTSGGTAALGCLVKDYFPEPVTVSWNSGALTSGVHTFPAVLQSSGLYSLSSVVTVPSSSLGTQTYICNVNHKPSNTKVDKKVEPKSCDKTHTCPPCPAPELLGGPSVFLFPPKPKDTLMISRTPEVTCVVVDVSHEDPEVKFNWYVDGVEVHNAKTKPREEQYNSTYRVVSVLTVLHQDWLNGKEYKCKVSNKALPAPIEKTISKAKGQPREPQVCTLPPSRDELTENQVSLTCLVKGFYPSDIAVEWESNGQPENNYKTTPPVLDSDGSFFLYSWLTVDKSRWQQGNVFSCSVMHEALHNHYTQKSLSLSPG
chain: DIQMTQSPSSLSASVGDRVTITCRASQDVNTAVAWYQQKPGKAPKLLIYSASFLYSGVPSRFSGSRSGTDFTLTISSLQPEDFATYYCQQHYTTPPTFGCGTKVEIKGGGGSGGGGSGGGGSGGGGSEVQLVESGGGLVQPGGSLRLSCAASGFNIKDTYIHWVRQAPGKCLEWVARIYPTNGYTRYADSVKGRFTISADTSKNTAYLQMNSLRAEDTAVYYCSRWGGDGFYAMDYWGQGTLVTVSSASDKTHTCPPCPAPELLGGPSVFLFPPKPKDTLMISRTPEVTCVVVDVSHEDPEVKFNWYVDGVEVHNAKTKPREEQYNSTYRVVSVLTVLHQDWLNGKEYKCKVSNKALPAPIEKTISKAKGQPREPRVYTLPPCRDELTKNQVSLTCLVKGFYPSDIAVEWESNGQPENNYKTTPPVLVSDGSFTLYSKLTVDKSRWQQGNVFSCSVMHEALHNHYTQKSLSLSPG
light: DIQMTQSPSSVSASVGDRVTITCRASQGISSWLAWYQQKPGKAPKLLIYAASSLQSGVPSRFSGSGSGTDFTLTISSLQPEDFATYYCQQGVSFPRTFGGGTKVEIKRTVAAPSPPSDEQLKSGTASVVCLLNNFYPREAKVQWKVDNALQSGNSQESVTEQDSKDSTYSLSSTLTLSKADYEKHKVYACEVTHQGLSSPVTKSFNRGEC
In the case of B1, the “EC50 in KHYG-1-CD16V cell killing of Hs578T cells” value worked out at 0.376 nM, the “EC50 in KHYG-1-CD16V cell-mediated cytolysis of BT-20 cells” value worked out at 1.16 nM and the “fold potency against trastuzumab in triggering NK cell-mediated killing of SKBR-3 cells” value stood at 2.5 fold.

Values taken from US20230034186A1 (DRAGONFLY THERAPEUTICS, published 2023).
